4 molecules from article PMC4559421, “Interaction of Yna1 and Yna2 Is Required for Nuclear Accumulation and Transcriptional Activation of the Nitrate Assimilation Pathway in the Yeast Hansenula polymorpha” can be followed below.

What all share (conditions): protein: recombinant; tags: His; chain copies: 2; label: 32P end label
The target in data set [1] is T1, HIS-Yna2p(1-180) (Hansenula polymorpha (syn. Pichia …, UniProt Q9HFM7 1-180)).
T1 sequence: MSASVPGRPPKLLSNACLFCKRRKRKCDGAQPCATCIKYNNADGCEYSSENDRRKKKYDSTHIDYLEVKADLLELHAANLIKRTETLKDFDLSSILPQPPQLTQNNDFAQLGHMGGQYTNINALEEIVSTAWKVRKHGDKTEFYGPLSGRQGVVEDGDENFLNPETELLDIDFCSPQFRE
Briefly: EMSA; poly(dIdC); EMSA: 75 ng protein in 10 ul KCl 1 mM, spermidine 80 mM (so in the source), 0.1 mg/ml poly(dIdC), on ice then 30 min at room temperature with probe; 6% PAGE, 50% glycerol, 0.5x TBE; pH not stated. (In general: In EMSA bound probe runs differently from free probe, usually more slowly.)

Data set [2] concerns the target T2, HIS-Yna1p(1-185) (Hansenula polymorpha (syn. Pichia …, UniProt O93984 1-185)).
T2 sequence: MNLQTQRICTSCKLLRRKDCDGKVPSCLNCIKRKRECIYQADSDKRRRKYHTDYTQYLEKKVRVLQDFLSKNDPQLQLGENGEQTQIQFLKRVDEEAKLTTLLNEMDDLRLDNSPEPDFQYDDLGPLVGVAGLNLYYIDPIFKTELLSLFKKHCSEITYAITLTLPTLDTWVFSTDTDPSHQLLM
Briefly: EMSA; poly(dIdC); complex diminished by 1x-2x unlabelled probe; EMSA: 75 ng protein in 10 ul KCl 1 mM, spermidine 80 mM (so in the source), 0.1 mg/ml poly(dIdC), on ice then 30 min at room temperature with probe; 6% PAGE, 50% glycerol, 0.5x TBE; pH not stated.

Data set [3] has as its target T1, HIS-Yna2p(1-180). Briefly: EMSA; poly(dIdC); no detectable complex; EMSA: 75 ng protein in 10 ul KCl 1 mM, spermidine 80 mM (so in the source), 0.1 mg/ml poly(dIdC), on ice then 30 min at room temperature with probe; 6% PAGE, 50% glycerol, 0.5x TBE; pH not stated.
The target in data set [4] is T2, HIS-Yna1p(1-185). Briefly: EMSA; poly(dIdC); complex abrogated by 1x-2x unlabelled probe; less stable than with probe 1; EMSA: 75 ng protein in 10 ul KCl 1 mM, spermidine 80 mM (so in the source), 0.1 mg/ml poly(dIdC), on ice then 30 min at room temperature with probe; 6% PAGE, 50% glycerol, 0.5x TBE; pH not stated.
Data set [5] addresses T2, HIS-Yna1p(1-185). Briefly: EMSA; poly(dIdC); binding disrupted; EMSA: 75 ng protein in 10 ul KCl 1 mM, spermidine 80 mM (so in the source), 0.1 mg/ml poly(dIdC), on ice then 30 min at room temperature with probe; 6% PAGE, 50% glycerol, 0.5x TBE; pH not stated.
The target in data set [6] is T2, HIS-Yna1p(1-185). Briefly: EMSA; poly(dIdC); complex formation disrupted; EMSA: 75 ng protein in 10 ul KCl 1 mM, spermidine 80 mM (so in the source), 0.1 mg/ml poly(dIdC), on ice then 30 min at room temperature with probe; 6% PAGE, 50% glycerol, 0.5x TBE; pH not stated.

B1: YNT1 probe 1 (dsDNA)
DNA 1: CCCGCTCATCGGAGAATATTCTGCTCAAAATTAAGGATGCCCAT
DNA 2: ATGGGCATCCTTAATTTTGAGCAGAATATTCTCCGATGAGCGGG
With B1, the binding result with HIS-Yna2p(1-180) [1] and with HIS-Yna1p(1-185) [2] was “binds” throughout.

B2: YNT1 probe 2 (dsDNA)
DNA 1: GGCTAGCATCCCGCTCATCGGAGAATATTCTGC
DNA 2: GCAGAATATTCTCCGATGAGCGGGATGCTAGCC
As for B2, the binding result is recorded as “no binding” with HIS-Yna2p(1-180) [3] and “binds” with HIS-Yna1p(1-185) [4].

B3: YNT1 probe 2 m2 (dsDNA)
DNA 1: GGCTAGCATCCCGCTCATATTAGAATATTCTGC
DNA 2: GCAGAATATTCTAATATGAGCGGGATGCTAGCC
In the case of B3, in the data set with HIS-Yna1p(1-185) [5], the binding result was “no binding”.

B4: YNT1 probe 2 m1 (dsDNA)
DNA 1: GGCTAGCATCAATCTCATCGGAGAATATTCTGC
DNA 2: GCAGAATATTCTCCGATGAGATTGATGCTAGCC
Consider B4, for which the binding result with HIS-Yna1p(1-185) [6] is given as “no binding”.
